From publication PMC10244618 come the findings set out here.

“And” between values parts separate entries of the source, which are not always exact repeats. Equal values may be shown once.

To fix the notation:
B1: NF2 (merlin) isoform 7, human, full length (507 aa, lacks exons 2-3 = isoform-1 residues 39-121; exon-16 C-terminus), P35240-4 (parent)
chain: MAGAIASRMSFSSLKRKQPKTFTVRIVTMDAEMEFNCEVKKQILDEKIYCPPEASVLLASYAVQAKYGDYDPSVHKRGFLAQEELLPKRVINLYQMTPEMWEERITAWYAEHRGRARDEAEMEYLKIAQDLEMYGVNYFAIRNKKGTELLLGVDALGLHIYDPENRLTPKISFPWNEIRNISYSDKEFTIKPLDKKIDVFKFNSSKLRVNKLILQLCIGNHDLFMRRRKADSLEVQQMKAQAREEKARKQMERQRLAREKQMREEAERTRDELERRLLQMKEEATMANEALMRSEETADLLAEKAQITEEEAKLLAQKAAEAEQEMQRIKATAIRTEEEKRLMEQKVLEAEVLALKMAEESERRAKEADQLKQDLQEAREAERRAKQKLLEIATKPTYPPMNPIPAPLPPDIPSFNLIGDSLSFDFKDTDMKRLSMEIEKEKVEYMEKSKHLQEQLNELKTEIEALKLKERETALDILHNENSDRGGSSKHNTIKKPQAQGRRPICI

The first experiment covers variants of B1. In words: reverse yeast two-hybrid deep mutational scan (rY2H-seq): NF2 isoform 7 mutant library as bait mated with wild-type prey strains; selection on medium lacking adenine for non-interacting pairs; NextSeq paired-end sequencing; enrichment vs …. The settings on record: with EMILIN1 (elastin microfibril interfacer 1), Q9Y6C2; yeast diploids after mating (RBait_S3 x RPrey_S3), 30 °C, selection for reporter genes on NB agar; human tyrosine kinase ABL2 co-expressed as the active kinase …; HIGHER = WEAKER BINDING (the opposite of display enrichments): higher = stronger loss of interaction: reverse Y2H selects yeast in which bait and prey do NOT interact (growth without adenine), so a …; hits-only table; scale: rY2H score; numbering: uniprot, sequence starts at 1. Background: Reporter assays use an easily measured gene product as a stand-in for the process of interest.
Consider I329K, for which the enrichment was 1.63 and 1.9. With L355E, the enrichment came to 1.61. As to K386T, the enrichment worked out at 7.62. Turning to K386Q, the enrichment was determined as 2.16. Turning to P405L, the enrichment turned out to be 5.05. With D198N, the enrichment is 1.92. Consider M326R, for which the enrichment came to 1.39. For the variant L315K, the enrichment was 4.2. With L315W, the enrichment turned out to be 7.24. Regarding E264A, the enrichment came out at 12.8. Regarding K330A, the enrichment was found to be 2.6. For K460E, the enrichment is 6.17. For K144L, the enrichment was determined as 2.68. R270K: the enrichment stood at 5.67. As to E282L, the enrichment is 3.15. Consider T336K, for which the enrichment was 4.16.

For the variant L151E, the enrichment is 15.6. For L417I, the enrichment came to 8.54. Regarding E111A, the enrichment came out at 4.1. The same measure, in the same setting: in the case of T332E it was 4.23 and 3.34; in that of T332S, 2.08. On to T332A, for which the enrichment stood at 4.79. For the variant L389E, the enrichment is 2.12.

On to D425L, for which the enrichment came to 3.06. As for K304W, the enrichment was 13.1 and 10.8. Regarding N480A, the enrichment came out at 1.73. With L300K, the enrichment stood at 8.53. On to L300R, for which the enrichment was found to be 3.24.

Consider L300C, for which the enrichment was 2.3.

Take F173S: the enrichment was 1.69.

Take R364K: the enrichment amounted to 2.07. In the case of A393K, the enrichment stood at 1.55. For Q306E, the enrichment turned out to be 8.86. Take A381V: the enrichment came out at 1.43. As to A381T, the enrichment was found to be 1.45.

On to A381M, for which the enrichment stood at 5.46. On the same count and under the same terms, for A381E the value was 1.42; for A381L, 1.87; for G157E, 5.67 and 3.65. Turning to G157K, the enrichment was determined as 3.64. Turning to R268E, the enrichment was 8.98 and 8.09.

Staying with this experiment, now noted: with KDM1A (lysine-specific histone demethylase 1A; the table's label AOF2 is a gene synonym of KDM1A), O60341; yeast diploids after mating (RBait_S3 x RPrey_S3), 30 °C, selection for reporter genes on NB agar; human tyrosine kinase ABL2 co-expressed as the active kinase …; HIGHER = WEAKER BINDING (the opposite of display enrichments): higher = stronger loss of interaction: reverse Y2H selects yeast in which bait and prey do NOT interact (growth without adenine), so a …; hits-only table; scale: rY2H score; numbering: uniprot, sequence starts at 1.
As to I329K, the enrichment was 2.5. The same measure, in the same setting: in the case of K330A it was 4.79; in that of K144L, 3.56. T336K: the enrichment is 2.26 and 6.75.

On to L417E, for which the enrichment came out at 3.12. On to E111A, for which the enrichment amounted to 1.51. For the variant T332A, the enrichment was 2.16. L389E: the enrichment came to 1.87.

With R268E, the enrichment was determined as 7.56.

The experiment is the same for the next values; noted with them: with NF2 C-terminal domain (wild type; homomeric NF2-NF2 interaction), P35240; yeast diploids after mating (RBait_S3 x RPrey_S3), 30 °C, selection for reporter genes on NB agar; human ABL2 co-expressed as the kinase-dead K35M mutant …; HIGHER = WEAKER BINDING (the opposite of display enrichments): higher = stronger loss of interaction: reverse Y2H selects yeast in which bait and prey do NOT interact (growth without adenine), so a …; hits-only table; partner unresolved; scale: rY2H score; numbering: uniprot, sequence starts at 1.
With I329K, the enrichment is 2.98 and 2.25. Same read-out and setting: in the case of L355E it was 1.76; in that of P405L, 7.16; in that of D374T, 3.23. On the same count and under the same terms, for L315K the value was 1.46. For the variant K460E, the enrichment stood at 3.55. Consider T332A, for which the enrichment was 2.4. Consider L389K, for which the enrichment was 4.56 and 2.51.

As for L300C, the enrichment worked out at 2.18. Consider L167E, for which the enrichment is 4.14 and 3.2. Same read-out and setting: for R364K the value was 2.52; for A381T, 1.6; for E295K, 2.66.

The experiment is the same for the next values; noted with them: with PIK3R3 (phosphatidylinositol 3-kinase regulatory subunit gamma), Q92569; yeast diploids after mating (RBait_S3 x RPrey_S3), 30 °C, selection for reporter genes on NB agar; human tyrosine kinase ABL2 co-expressed as the active kinase …; HIGHER = WEAKER BINDING (the opposite of display enrichments): higher = stronger loss of interaction: reverse Y2H selects yeast in which bait and prey do NOT interact (growth without adenine), so a …; hits-only table; scale: rY2H score; numbering: uniprot, sequence starts at 1.
Turning to I329K, the enrichment is 1.89. As for Q64L, the enrichment is 6.71.

Regarding R270K, the enrichment was 4.09.

For T336K, the enrichment is 2.98. Consider R227E, for which the enrichment came out at 36.3.

Take L417E: the enrichment is 2.19. For the variant L389K, the enrichment is 2.43. Take F173S: the enrichment is 4.73 and 5.14.

As to R228G, the enrichment is 15.3. Same read-out and setting: in the case of M238I it was 2.66; in that of A393K, 3.14. For A381V, the enrichment was determined as 1.6. Take A381M: the enrichment worked out at 8.42.

Turning to G157E, the enrichment is 5.03 and 2.8. Take G157K: the enrichment stood at 7.92. As to R268E, the enrichment stood at 11.6.

The same experiment, now with this note: with KDM1A (lysine-specific histone demethylase 1A; the table's label AOF2 is a gene synonym of KDM1A), O60341; yeast diploids after mating (RBait_S3 x RPrey_S3), 30 °C, selection for reporter genes on NB agar; human ABL2 co-expressed as the kinase-dead K35M mutant …; HIGHER = WEAKER BINDING (the opposite of display enrichments): higher = stronger loss of interaction: reverse Y2H selects yeast in which bait and prey do NOT interact (growth without adenine), so a …; hits-only table; scale: rY2H score; numbering: uniprot, sequence starts at 1.
For A312L, the enrichment worked out at 3.21. As for K386T, the enrichment was found to be 5.27. Still for that read-out and setting: in the case of P405S it was 6.05; in that of D374T, 7.88 and 2.96; in that of M262I, 1.81.

Turning to L315S, the enrichment worked out at 4.11. Turning to L315P, the enrichment was 2.33. Consider K330A, for which the enrichment was 1.85. As for Q64L, the enrichment amounted to 2.29. With E282K, the enrichment is 1.54. For T336L, the enrichment amounted to 2.98. As for R227E, the enrichment was determined as 14.7. On the same count and under the same terms, for L417E the value was 2.45; for L417I, 4.11. For T332E, the enrichment turned out to be 7.44.

As to T332A, the enrichment is 1.86 and 5.52. Same read-out and setting: for L389S the value was 1.45; for L389K, 2.15; for K304W, 17. The same measure, in the same setting: in the case of L300P it was 4.3; in that of F173V, 2.3. F173S: the enrichment turned out to be 3.95. L167E: the enrichment is 2.5. As to L167A, the enrichment is 1.67. With R364K, the enrichment worked out at 3.56.

For the variant R228G, the enrichment was determined as 8.73.

Take E34A: the enrichment was found to be 1.5.

As for M238I, the enrichment worked out at 2.35. Turning to A393L, the enrichment worked out at 1.9. E295K: the enrichment is 1.91. As to R384E, the enrichment was 2.89.

As to R268E, the enrichment is 8.2 and 3.3.
